Target: microtubules (human (endogenous in HEK293T)) (UniProt P68363)
Assay: co-sedimentation; microtubule co-sedimentation assay of HEK293T cells with overexpressed Climp63-HA and GFP or GFP-Calu1; 37°C; P pellet = microtubule fraction, S supernatant = free tubulin fraction

Climp63-HA, sequence (Q07065 whole entry): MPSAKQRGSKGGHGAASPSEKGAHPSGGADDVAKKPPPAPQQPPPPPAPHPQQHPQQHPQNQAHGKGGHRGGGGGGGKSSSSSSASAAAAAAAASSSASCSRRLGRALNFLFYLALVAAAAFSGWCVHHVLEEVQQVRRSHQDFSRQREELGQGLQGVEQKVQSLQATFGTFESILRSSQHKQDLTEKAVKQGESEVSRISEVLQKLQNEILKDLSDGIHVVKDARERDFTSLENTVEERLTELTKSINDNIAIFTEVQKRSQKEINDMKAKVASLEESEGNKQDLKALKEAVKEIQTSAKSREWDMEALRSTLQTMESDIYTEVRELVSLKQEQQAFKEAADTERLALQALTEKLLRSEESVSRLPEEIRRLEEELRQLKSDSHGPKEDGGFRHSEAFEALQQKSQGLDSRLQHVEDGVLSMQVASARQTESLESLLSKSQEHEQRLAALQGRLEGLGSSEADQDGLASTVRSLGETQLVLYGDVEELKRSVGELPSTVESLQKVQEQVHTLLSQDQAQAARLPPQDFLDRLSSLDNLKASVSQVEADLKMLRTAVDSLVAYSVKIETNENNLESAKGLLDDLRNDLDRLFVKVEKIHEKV
UniProt P68363, sequence (P68363 whole entry, chain 1 of 2): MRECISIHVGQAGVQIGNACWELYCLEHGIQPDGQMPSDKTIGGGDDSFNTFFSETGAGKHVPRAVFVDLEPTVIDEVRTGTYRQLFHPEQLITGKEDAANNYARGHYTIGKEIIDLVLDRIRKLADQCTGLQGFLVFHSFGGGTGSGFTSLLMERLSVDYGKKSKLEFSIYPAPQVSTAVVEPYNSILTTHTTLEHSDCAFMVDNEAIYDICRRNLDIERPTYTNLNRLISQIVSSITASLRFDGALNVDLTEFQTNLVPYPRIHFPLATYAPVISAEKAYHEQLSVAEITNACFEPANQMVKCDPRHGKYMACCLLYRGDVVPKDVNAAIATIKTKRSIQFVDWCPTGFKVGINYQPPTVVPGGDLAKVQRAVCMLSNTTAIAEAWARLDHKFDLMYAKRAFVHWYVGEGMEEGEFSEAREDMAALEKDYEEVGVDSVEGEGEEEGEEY
UniProt P68363, sequence (P07437 whole entry, chain 2 of 2, further chain): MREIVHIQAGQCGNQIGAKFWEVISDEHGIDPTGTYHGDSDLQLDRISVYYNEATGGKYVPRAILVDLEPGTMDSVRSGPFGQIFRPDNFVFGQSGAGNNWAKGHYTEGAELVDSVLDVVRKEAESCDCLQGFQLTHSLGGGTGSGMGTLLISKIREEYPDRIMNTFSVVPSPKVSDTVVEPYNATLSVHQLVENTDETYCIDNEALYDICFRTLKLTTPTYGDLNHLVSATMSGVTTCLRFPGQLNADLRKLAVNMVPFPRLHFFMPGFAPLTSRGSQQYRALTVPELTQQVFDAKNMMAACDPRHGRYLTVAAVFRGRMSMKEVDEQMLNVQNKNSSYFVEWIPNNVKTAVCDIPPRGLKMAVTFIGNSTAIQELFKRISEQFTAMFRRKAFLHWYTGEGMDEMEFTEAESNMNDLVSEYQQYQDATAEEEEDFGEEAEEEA

## Climp63-HA (from UniProt Q07065 1-602) (natural protein)
  percent of Climp63 in the pellet (microtubule fraction) at 37°C, GFP overexpressed: 60%
  percent of Climp63 in the pellet (microtubule fraction) at 37°C, GFP-Calu1 overexpressed: 36%

— paper PMC6931119
